Like-named read-outs stand apart in the source and are kept apart here.
T1: hexYme1p (S. cerevisiae) (UniProt P32795)
T1 sequence: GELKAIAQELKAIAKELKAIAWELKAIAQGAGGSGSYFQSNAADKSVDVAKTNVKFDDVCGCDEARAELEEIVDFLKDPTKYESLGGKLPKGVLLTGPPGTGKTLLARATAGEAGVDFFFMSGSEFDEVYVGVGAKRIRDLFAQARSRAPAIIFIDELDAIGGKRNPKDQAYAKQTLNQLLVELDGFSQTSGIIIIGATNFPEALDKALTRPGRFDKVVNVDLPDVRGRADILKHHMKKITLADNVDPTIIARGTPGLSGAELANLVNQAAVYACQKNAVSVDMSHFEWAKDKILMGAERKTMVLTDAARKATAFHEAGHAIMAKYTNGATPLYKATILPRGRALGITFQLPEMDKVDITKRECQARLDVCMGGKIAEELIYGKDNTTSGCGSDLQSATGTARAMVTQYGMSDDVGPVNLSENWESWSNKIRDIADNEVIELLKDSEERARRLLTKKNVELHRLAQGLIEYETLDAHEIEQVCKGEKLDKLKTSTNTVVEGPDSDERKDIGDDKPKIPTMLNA


Experiments:
hexYme1p (S. cerevisiae) [1] = biological target: T1, hexYme1p (S. cerevisiae)
hexYme1p (S. cerevisiae) [2] = biological target: T1, hexYme1p (S. cerevisiae); remark: listed apart in the source
SEC = biological target: the molecule itself; assay: SEC

Molecule | initial rate of degradation of 20 μM substrate by hexYme1p (min^−1 enz6^−1) (hexYme1p (S. cerevisiae) [1]) | initial rate of degradation by hexYme1p (min^−1 enz6^−1) (hexYme1p (S. cerevisiae) [2]) | other results
T13-λcI^N (from UniProt P53299 1-13) | 0.22 |  | 
T12-λcI^N (from UniProt P32830 1-15) | 0.33 |  | 
T10-λcI^N (from UniProt P87108 1-15) | 0.7 |  | 
T9-λcI^N (from UniProt O74700 1-8) | 0.03 |  | 
Tim9^D2F (natural protein) MFALNSKEQQEFQKVVEQKQMKDFMRLYSNLVERCFTDCVNDFTTSKLTNKEQTCIMKCSEKFLKHSERVGQRFQEQNAALGQGLGR |  |  | initial rate of degradation by hexYme1p, without DTT (min^−1 enz6^−1) (hexYme1p (S. cerevisiae) [2]): 0.16
hexYme1p (enzyme, S. cerevisiae) GELKAIAQELKAIAKELKAIAWELKAIAQGAGGSGSYFQSNAADKSVDVAKTNVKFDDVCGCDEARAELEEIVDFLKDPTKYESLGGKLPKGVLLTGPPGTGKTLLARATAGEAGVDFFFMSGSEFDEVYVGVGAKRIRDLFAQARSRAPAIIFIDELDAIGGKRNPKDQAYAKQTLNQLLVELDGFSQTSGIIIIGATNFPEALDKALTRPGRFDKVVNVDLPDVRGRADILKHHMKKITLADNVDPTIIARGTPGLSGAELANLVNQAAVYACQKNAVSVDMSHFEWAKDKILMGAERKTMVLTDAARKATAFHEAGHAIMAKYTNGATPLYKATILPRGRALGITFQLPEMDKVDITKRECQARLDVCMGGKIAEELIYGKDNTTSGCGSDLQSATGTARAMVTQYGMSDDVGPVNLSENWESWSNKIRDIADNEVIELLKDSEERARRLLTKKNVELHRLAQGLIEYETLDAHEIEQVCKGEKLDKLKTSTNTVVEGPDSDERKDIGDDKPKIPTMLNA |  |  | stoichiometry N (SEC): 6
Tim13^3–7A (natural protein) MGAAAAAGGGAPSQQKEAATTAKTTPNPIAKELKNQIAQELAVANATELVNKISENCFEKCLTSPYATRNDACIDQCLAKYMRSWNVISKAYISRIQNASASGEI |  |  | initial rate of degradation by hexYme1p, without DTT (min^−1 enz6^−1) (hexYme1p (S. cerevisiae) [1]): 0.05

Further lines, with some results ahead:

initial rate of degradation of 20 μM substrate by hexYme1p (min^−1 enz6^−1) (hexYme1p (S. cerevisiae) [1]) | initial rate of degradation by hexYme1p (min^−1 enz6^−1) (hexYme1p (S. cerevisiae) [2]) | Molecule | other results
 | 0.05 | Tim10^2–6A (natural protein) MAAAAAGGGQPQLSSQQKIQAAEAELDLVTDMFNKLVNNCYKKCINTSYSEGELNKNESSCLDRCVAKYFETNVQVGENMQKMGQSFNAAGKF | 
 | 0.43 | Tim10^F-alone (natural protein) MAFAAFAGGQPQLSSQQKIQAAEAELDLVTDMFNKLVNNCYKKCINTSYSEGELNKNESSCLDRCVAKYFETNVQVGENMQKMGQSFNAAGKF | 
 | 0.11 | Tim10^F3A/F6A (natural protein) MSALGAGGGQPQLSSQQKIQAAEAELDLVTDMFNKLVNNCYKKCINTSYSEGELNKNESSCLDRCVAKYFETNVQVGENMQKMGQSFNAAGKF | 

Source: article PMC5402353 (Journal of molecular biology, 2017)
